Test results as given in patent US20090047240A1 (CBIO, published 2009).

Columns and labels:
Assay in all cases: FRET on MonoMac 6 cells, unstimulated and LPS-stimulated
TLR4 = target: T1, TLR4 (human, UniProt O00206 24-839)
T1 construct: whole, on cells; also called Toll-like receptor 4

CD14 = target: T2, CD14 (human, UniProt P08571 20-345)
T2 construct: whole, on cells
T2 sequence (looked up): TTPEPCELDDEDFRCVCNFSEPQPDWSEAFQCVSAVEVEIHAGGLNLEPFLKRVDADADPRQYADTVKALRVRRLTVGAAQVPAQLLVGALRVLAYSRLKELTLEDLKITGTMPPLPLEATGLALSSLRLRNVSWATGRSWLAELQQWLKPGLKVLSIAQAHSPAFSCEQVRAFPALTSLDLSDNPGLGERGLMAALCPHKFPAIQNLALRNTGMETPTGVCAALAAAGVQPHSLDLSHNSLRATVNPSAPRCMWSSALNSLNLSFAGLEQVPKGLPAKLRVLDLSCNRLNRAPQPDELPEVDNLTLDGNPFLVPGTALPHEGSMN

Hsp70 = target: T3, Hsp70 (human, UniProt P0DMV8 2-641)
T3 construct: whole, on cells

CXCR4 = target: T4, CXCR4 (human, UniProt P61073 1-352)
T4 construct: whole, on cells

Measured: binding result

T3 sequence (P0DMV8 2-641): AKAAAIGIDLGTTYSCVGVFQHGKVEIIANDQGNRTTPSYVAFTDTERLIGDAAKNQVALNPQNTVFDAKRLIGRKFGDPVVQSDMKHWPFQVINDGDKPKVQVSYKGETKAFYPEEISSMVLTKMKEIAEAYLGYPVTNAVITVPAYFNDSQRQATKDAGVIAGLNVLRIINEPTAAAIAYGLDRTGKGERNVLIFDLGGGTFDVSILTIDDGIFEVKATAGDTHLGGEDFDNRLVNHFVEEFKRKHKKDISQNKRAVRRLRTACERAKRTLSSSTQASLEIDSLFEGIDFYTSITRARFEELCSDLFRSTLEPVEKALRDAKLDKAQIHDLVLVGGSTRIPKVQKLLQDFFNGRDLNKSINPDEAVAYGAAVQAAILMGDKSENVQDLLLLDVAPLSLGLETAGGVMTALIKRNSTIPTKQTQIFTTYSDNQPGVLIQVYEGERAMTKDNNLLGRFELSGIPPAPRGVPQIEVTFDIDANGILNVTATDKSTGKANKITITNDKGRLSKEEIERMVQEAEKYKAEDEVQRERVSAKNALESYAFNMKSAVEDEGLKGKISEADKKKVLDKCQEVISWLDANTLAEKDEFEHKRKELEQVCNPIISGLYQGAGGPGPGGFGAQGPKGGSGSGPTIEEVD
T1 sequence (O00206 24-839): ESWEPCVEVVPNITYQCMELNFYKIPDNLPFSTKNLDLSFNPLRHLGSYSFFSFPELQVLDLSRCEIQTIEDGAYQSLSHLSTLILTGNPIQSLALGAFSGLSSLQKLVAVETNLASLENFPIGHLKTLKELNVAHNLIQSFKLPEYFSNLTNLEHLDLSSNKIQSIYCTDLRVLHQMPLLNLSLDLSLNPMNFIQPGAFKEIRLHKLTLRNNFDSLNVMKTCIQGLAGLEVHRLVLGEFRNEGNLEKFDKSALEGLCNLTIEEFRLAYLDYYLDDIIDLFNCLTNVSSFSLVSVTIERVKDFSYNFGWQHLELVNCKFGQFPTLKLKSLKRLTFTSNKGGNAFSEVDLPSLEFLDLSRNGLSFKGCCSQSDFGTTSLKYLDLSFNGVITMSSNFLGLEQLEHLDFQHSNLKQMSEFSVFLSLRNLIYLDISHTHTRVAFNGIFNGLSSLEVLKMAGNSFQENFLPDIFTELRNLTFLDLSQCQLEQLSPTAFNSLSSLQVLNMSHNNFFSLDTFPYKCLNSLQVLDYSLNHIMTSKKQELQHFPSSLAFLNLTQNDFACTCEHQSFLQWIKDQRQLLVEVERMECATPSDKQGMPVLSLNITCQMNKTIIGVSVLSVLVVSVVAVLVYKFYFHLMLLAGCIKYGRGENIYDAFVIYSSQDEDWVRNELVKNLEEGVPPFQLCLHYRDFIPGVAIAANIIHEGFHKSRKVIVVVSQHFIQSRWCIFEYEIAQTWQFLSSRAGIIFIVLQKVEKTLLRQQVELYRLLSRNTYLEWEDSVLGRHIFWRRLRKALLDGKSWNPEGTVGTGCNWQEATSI
T4 sequence (P61073 whole entry): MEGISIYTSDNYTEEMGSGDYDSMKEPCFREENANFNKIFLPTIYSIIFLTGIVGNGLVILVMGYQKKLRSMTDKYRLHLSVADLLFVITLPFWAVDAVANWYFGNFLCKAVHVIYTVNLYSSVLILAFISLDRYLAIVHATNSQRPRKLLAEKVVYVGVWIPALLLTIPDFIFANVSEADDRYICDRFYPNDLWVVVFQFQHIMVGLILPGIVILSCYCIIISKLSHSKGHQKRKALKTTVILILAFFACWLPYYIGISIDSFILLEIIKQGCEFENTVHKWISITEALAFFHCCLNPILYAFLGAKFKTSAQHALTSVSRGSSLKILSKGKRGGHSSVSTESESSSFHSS

B1: E. coli GroES (other)
chain: MNIRPLHDRVIVKRKEVETKSAGGIVLTGSAAAKSTRGEVLAVGNGRILENGEVKPLDVKVGDIVIFNDGYGVKSEKIDNEEVLIMSESDILAIVEA
notes: also called E. coli homologue of Cpn10
no binding: TLR4 | CD14 | Hsp70 | CXCR4
